Results published in patent US12269859B2, “Synthetic immune receptors and methods of use thereof” (Angeles Therapeutics, Inc., priority 2016, dated 2025).

B1: 042916-B04 (protein)
chain: MALPVTALLLPLALLLHAARPLEGKPIPNPLLGLDSTGSGEDLKNVFPPEVAVFEPSKAEIAHTQKATLVCLATGFYPDHVELSWWVNGKEVHSGVCTDPQPLKEQPALNDSRYCLSSRLRVSATFWQNPRNHFRCQVQFYGLSENDEWTQDRAKPVTQIVSAEAWGRADCGITSASYHQGVLSATILYEILLGKATLYAVLVSALVLMAMVKRKDSRGRAKRSGSGATNFSLLKQAGDVEENPGPTSTMALPVTALLLPLALLLHAARPDIQMTQSPSSLSASVGDRVTITCTASLSVSSTYLHWYQQKPGSSPKLWIYSTSNLASGVPSRFSGSGSGTSYTLTISSLQPEDFATYYCHQYHRSPLTFGGGTKVEIKRGGGGSGGGGSGGGGSEVQLVESGGGLVQPGGSLRLSCAASGFSLTKYGVHWVRQAPGKGLEWVGVKWAGGSTDYNSALMSRFTISKDNAKNSLYLQMNSLRAEDTAVYYCARDHRDAMDYWGQGTLVTVSSTREQKLISEEDGSGIQNPDPAVYQLRDSKSSDKSVCLFTDFDSQTNVSQSKDSDVYITDKCVLDMRSMDFKSNSAVAWSNKSDFACANAFNNSIIPEDTFFPSSDVPCDVKLVEKSFETDTNLNFQNLSVIGFRILLLKVAGFNLLMTLRLWSSRAKRSGSGVKQTLNFDLLKLAGDVESNPGPSRGHMTEYKPTVRLATRDDVPRAVRTLAAAFADYPATRHTVDPDRHIERVTELQELFLTRVGLDIGKVWVADDGAAVAVWTTPESVEAGAVFAEIGPRMAELSGSRLAAQQQMEGLLAPHRPKEPAWFLATVGVSPDHQGKGLGSAVVLPGVEAAERAGVPAFLETSAPRNLPFYERLGFTVTADVEVPEGPRTWCMTRKPGA
modifications: Synthetic Immune Receptor (SIR)
B2: 071417-W08 (protein)
chain: MALPVTALLLPLALLLHAARPLEGKPIPNPLLGLDSTGSGEDLKNVFPPEVAVFEPSKAEIAHTQKATLVCLATGFYPDHVELSWWVNGKEVHSGVCTDPQPLKEQPALNDSRYCLSSRLRVSATFWQNPRNHFRCQVQFYGLSENDEWTQDRAKPVTQIVSAEAWGRADCGITSASYHQGVLSATILYEILLGKATLYAVLVSALVLMAMVKRKDSRGRAKRSGSGATNFSLLKQAGDVEENPGPTSMALPVTALLLPLALLLHAARPDVMLTQTPLSLPVSLGDQASISCRSSQSILHSTGDTYLEWYLQKPGQSPKLLINKVSNRLSGVPDRFSGSGSGTDFTLKISRVEAEDLGVYYCFQGSHVPWTFGGGTKLEIKRADAAPTVSIFPGGGGSGGGGSGGGGSQVKLQQSGPSLVKPGASVKMSCKASGYTFTDFYMKWVKQSHGKSLEWIGDINPNIGDTFYNQKFKGKATLTVDKSSSTAYMQLNSLTSEDSAVYFCSVGYFDVWGAGTTVTVSSTREQKLISEEDGSGIQNPDPAVYQLRDSKSSDKSVCLFTDFDSQTNVSQSKDSDVYITDKCVLDMRSMDFKSNSAVAWSNKSDFACANAFNNSIIPEDTFFPSSDVPCDVKLVEKSFETDTNLNFQNLSVIGFRILLLKVAGFNLLMTLRLWSSRAKRSGSGVKQTLNFDLLKLAGDVESNPGPSRGHMTEYKPTVRLATRDDVPRAVRTLAAAFADYPATRHTVDPDRHIERVTELQELFLTRVGLDIGKVWVADDGAAVAVWTTPESVEAGAVFAEIGPRMAELSGSRLAAQQQMEGLLAPHRPKEPAWFLATVGVSPDHQGKGLGSAVVLPGVEAAERAGVPAFLETSAPRNLPFYERLGFTVTADVEVPEGPRTWCMTRKPGA
B3: 090116-J01 (protein)
chain: MALPVTALLLPLALLLHAARPLEGKPIPNPLLGLDSTGSGEDLKNVFPPEVAVFEPSKAEIAHTQKATLVCLATGFYPDHVELSWWVNGKEVHSGVCTDPQPLKEQPALNDSRYCLSSRLRVSATFWQNPRNHFRCQVQFYGLSENDEWTQDRAKPVTQIVSAEAWGRADCGITSASYHQGVLSATILYEILLGKATLYAVLVSALVLMAMVKRKDSRGRAKRSGSGATNFSLLKQAGDVEENPGPTSMALPVTALLLPLALLLHAARPDIQMTQSPASLSASVGETVTIICRASVNIYSYLAWYQQKQGKSPQLLVYNAKILAEGVPSRFSGSGSGTQFSLKINSLQPEDFGSYYCQHHYGTFTFGSGTKLEIKRGGGGSGGGGSGGGGSQVQLKESGPGLVAPSQSLSITCTISGFSLTSYGVHWVRQPPGKGLEWLVVIWSDGSTTYNSALKSRLSISKDNSKSQVFLKMNSLQTDDTAIYYCASHYGSTLAFASWGHGTLVTVSAATREQKLISEEDGSGIQNPDPAVYQLRDSKSSDKSVCLFTDFDSQTNVSQSKDSDVYITDKCVLDMRSMDFKSNSAVAWSNKSDFACANAFNNSIIPEDTFFPSSDVPCDVKLVEKSFETDTNLNFQNLSVIGFRILLLKVAGFNLLMTLRLWSSRAKRSGSGVKQTLNFDLLKLAGDVESNPGPSRGHMTEYKPTVRLATRDDVPRAVRTLAAAFADYPATRHTVDPDRHIERVTELQELFLTRVGLDIGKVWVADDGAAVAVWTTPESVEAGAVFAEIGPRMAELSGSRLAAQQQMEGLLAPHRPKEPAWFLATVGVSPDHQGKGLGSAVVLPGVEAAERAGVPAFLETSAPRNLPFYERLGFTVTADVEVPEGPRTWCMTRKPGA
modifications: Synthetic Immune Receptor (SIR)
B4: 110116-J04 (protein)
chain: MALPVTALLLPLALLLHAARPLEQKLISEEDLGSGDRPDPAVYQLRDSKSSDKSVCLFTDFDSQTNVSQSKDSDVYITDKCVLDMRSMDFKSNSAVAWSNKSDFACANAFNNSIIPEDTFFPSPESSCDVKLVEKSFETDTNLNFQNLSVIGFRILLLKVAGFNLLMTLRLWSSSSRAKRSGSGVKQTLNFDLLKLAGDVESNPGPTSMALPVTALLLPLALLLHAARPDIQMTQSPASLSASVGETVTIICRASVNIYSYLAWYQQKQGKSPQLLVYNAKILAEGVPSRFSGSGSGTQFSLKINSLQPEDFGSYYCQHHYGTFTFGSGTKLEIKRGGGGSGGGGSGGGGSQVQLKESGPGLVAPSQSLSITCTISGFSLTSYGVHWVRQPPGKGLEWLVVIWSDGSTTYNSALKSRLSISKDNSKSQVFLKMNSLQTDDTAIYYCASHYGSTLAFASWGHGTLVTVSAATRGKPIPNPLLGLDSTGSGEDLKNVFPPEVAVFEPSEAEISHTQKATLVCLATGFYPDHVELSWWVNGKEVHSGVCTDPQPLKEQPALNDSRYCLSSRLRVSATFWQNPRNHFRCQVQFYGLSENDEWTQDRAKPVTQIVSAEAWGRADCGFTSESYQQGVLSATILYEILLGKATLYAVLVSALVLMAMVKRKDSRGRAKRSGSGATNFSLLKQAGDVEENPGPSRGHMTEYKPTVRLATRDDVPRAVRTLAAAFADYPATRHTVDPDRHIERVTELQELFLTRVGLDIGKVWVADDGAAVAVWTTPESVEAGAVFAEIGPRMAELSGSRLAAQQQMEGLLAPHRPKEPAWFLATVGVSPDHQGKGLGSAVVLPGVEAAERAGVPAFLETSAPRNLPFYERLGFTVTADVEVPEGPRTWCMTRKPGA
modifications: Synthetic Immune Receptor (SIR)
B5: 041416-N03 (protein)
chain: MALPVTALLLPLALLLHAARPDIVMTQSHKFMSTSVGDRVSVTCKASQNVGNNVAWYQQKPGQSPKVLIYSASYRYSGVPDRFTGSGSGTDFTLTISNVQSEDLAEYFCQQYNTYPFTFGSGTKLEIKLEGKPIPNPLLGLDSTGSGEDLKNVFPPEVAVFEPSKAEIAHTQKATLVCLATGFYPDHVELSWWVNGKEVHSGVCTDPQPLKEQPALNDSRYCLSSRLRVSATFWQNPRNHFRCQVQFYGLSENDEWTQDRAKPVTQIVSAEAWGRADCGITSASYHQGVLSATILYEILLGKATLYAVLVSALVLMAMVKRKDSRGRAKRSGSGATNFSLLKQAGDVEENPGPTSMDWIWRILFLVGAATGAHSFEEVQLEESGGGLVQPGGSMKLSCVASGFTFSNYWMNWVRQSPEKGLEWVAEIRFKSHNYATHFAESVKGRFTISRDDSKSSVYLQMNNLRAEDTGIYYCTRRIGNSDYDWWYFDVWGAGTSVTVSSASTREQKLISEEDGSGTPFPSLAPPIMLLVDGKQQMVVVCLVLDVAPPGLDSPIWFSAGNGSALDAFTYGPSPATDGTWTNLAHLSLPSEELASWEPLVCHTGPGAEGHSRSTQPMHLSGEASTARTCPQEPLRGTPGGALWLGVLRLLLFKLLLFDLLLTCSCLCDPAGPLPSPATTTRLRALGSHRLHPATETGGREATSSPRPQPRDRRWGDTPPGRKPGSPVRAKRSGSGVKQTLNFDLLKLAGDVESNPGPSRGHMTEYKPTVRLATRDDVPRAVRTLAAAFADYPATRHTVDPDRHIERVTELQELFLTRVGLDIGKVWVADDGAAVAVWTTPESVEAGAVFAEIGPRMAELSGSRLAAQQQMEGLLAPHRPKEPAWFLATVGVSPDHQGKGLGSAVVLPGVEAAERAGVPAFLETSAPRNLPFYERLGFTVTADVEVPEGPRTWCMTRKPGA
modifications: Polynucleotide encoding a Synthetic Immune Receptor (SIR)
B6: 032216-Y07 (protein)
chain: MALPVTALLLPLALLLHAARPDIVMTQSHKFMSTSVGDRVSVTCKASQNVGNNVAWYQQKPGQSPKVLIYSASYRYSGVPDRFTGSGSGTDFTLTISNVQSEDLAEYFCQQYNTYPFTFGSGTKLEIKLEGKPIPNPLLGLDSTGSGEDLKNVFPPEVAVFEPSKAEIAHTQKATLVCLATGFYPDHVELSWWVNGKEVHSGVCTDPQPLKEQPALNDSRYCLSSRLRVSATFWQNPRNHFRCQVQFYGLSENDEWTQDRAKPVTQIVSAEAWGRADCGITSASYHQGVLSATILYEILLGKATLYAVLVSALVLMAMVKRKDSRGRAKRSGSGATNFSLLKQAGDVEENPGPTSMDWIWRILFLVGAATGAHSFEEVQLEESGGGLVQPGGSMKLSCVASGFTFSNYWMNWVRQSPEKGLEWVAEIRFKSHNYATHFAESVKGRFTISRDDSKSSVYLQMNNLRAEDTGIYYCTRRIGNSDYDWWYFDVWGAGTSVTVSSASTREQKLISEEDGSGIQNPDPAVYQLRDSKSSDKSVCLFTDFDSQTNVSQSKDSDVYITDKCVLDMRSMDFKSNSAVAWSNKSDFACANAFNNSIIPEDTFFPSSDVPCDVKLVEKSFETDTNLNFQNLSVIGFRILLLKVAGFNLLMTLRLWSSRAKRSGSGVKQTLNFDLLKLAGDVESNPGPSRGHMTEYKPTVRLATRDDVPRAVRTLAAAFADYPATRHTVDPDRHIERVTELQELFLTRVGLDIGKVWVADDGAAVAVWTTPESVEAGAVFAEIGPRMAELSGSRLAAQQQMEGLLAPHRPKEPAWFLATVGVSPDHQGKGLGSAVVLPGVEAAERAGVPAFLETSAPRNLPFYERLGFTVTADVEVPEGPRTWCMTRKPGA
modifications: Polynucleotide encoding a Synthetic Immune Receptor (SIR)

System: target antigen-expressing cell line
Experiment: Jurkat NFAT-GFP assay, coculture with target cell lines expressing the respective target antigen (summary Table 10A)
Assay type: cell-based, human
Parameters: key: The signs +/−, +, 2+ etc. after the name of the cell lines indicate the relative degree of positivity on the Jurkat-NFAT-GFP assay as measured by the % GFP positive cells; +: relative degree of positivity on the Jurkat-NFAT-GFP assay as measured by the % GFP positive cells; 2+: relative degree of positivity on the Jurkat-NFAT-GFP assay as measured by the % GFP positive cells
Procedure, shortened: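 Jurkat cells carrying an NFAT-site IL-2 promoter driving GFP were lentivirally transduced with SIRs, puromycin-selected, then cocultured with antigen-expressing target cells at E:T about 1:2 for about 4–18 hours. GFP induction was read by flow cytometry as % GFP-positive cells versus parental Jurkat-NFAT-GFP.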

Molecule	NFAT-GFP ASSAY Positive Cell lines (coculture with NALM6 cells)	NFAT-GFP ASSAY Positive Cell lines (coculture with RAJI cells)	further results
B1	–	–	NFAT-GFP ASSAY Positive Cell lines (coculture with U87-MG (U87MG) cells): U87MG
B2	–	–	NFAT-GFP ASSAY Positive Cell lines (coculture with U266 cells): U266 (+/−)
B3	(+)	–	–
B4	(2+)	RAJI (2+), NALM6	–
B5	–	RAJI (+/−)	–
B6	–	RAJI (+)	–
